Patent US20230235054A1 (BIOATLA, published 2023)

B1: BAP-143-wildtype (antibody, V domains shown)
VH: EVQLVESGGGLVQPGGSLRLSCAASGFTFSSYNMNWVRQAPGKGLEWVSYISSSSSTIYYADSVKGRFTISRDNAKNSLSLQMNSLRDEDTAVYYCARAYYYGMDVWGQGTTVTVSS
VL: DIQMTQSPSSVSASVGDRVTITCRASQGISGWLAWYQQKPGKAPKFLIYAASTLQSGVPSRFSGSGSGTDFTLTISSLQPEDFATYYCQQANSFPPTFGGGTKVEIK
notes: 150 kDa used in SPR; also called BAP143-00-00; benchmark (BM)
B2: BAP-143-06-24-16 (antibody, V domains shown)
VH: EVQLVQSGAEVKKPGATVKISCKVSGFTFSSYNMNWIRQSPSRGLEWLGYISSSSSTIYYADSVKGRFTISRDNSKNTLYLQMNSLRAEDTAVYYCARAYYYGDDVWGQGTLVTVSS
VL: DIQMTQSPSSVSASVGDRVTITCHASQGISGWLAWYQQKPGKAPKFLIYAASTLQSGVPSRFSGSGSGTDFTLTISSLQPEDFATYYCQQANSFPPTFGGGTKVEIK
notes: Used as a conjugate with a linker payload (CAB ADC)
B3: BAP-143-00-01 (antibody, V domains shown)
VH: EVQLVESGGGLVQPGGSLRLSCAASGFTFSSYNMNWVRQAPGKGLEWVSYISSSSSTIYYADSVKGRFTISRDNAKNSLSLQMNSLRDEDTAVYYCARAYYYGMDVWGQGTTVTVSS
VL: DIQMTQSPSSVSASVGDRVTITCRASQGISGWEAWYQQKPGKAPKFLIYAASTLQSGVPSRFSGSGSGTDFTLTISSLQPEDFATYYCQQANSFPPTFGGGTKVEIK
notes: as for B2
B4: BAP-143-06-33-16 (antibody, V domains shown)
VH: EVQLVQSGAEVKKPGATVKISCKVSGFTFSSYNMNWIRQSPSRGLEWLGYISSSSSTIYYADSVKGRFTISRDNSKNTLYLQMNSLRAEDTAVYYCARAYYYGDDVWGQGTLVTVSS
VL: DIQMTQSPSSVSASVGDRVTITCRASQGISGWEAWYQQKPGKAPKFLIYAASTLQSGVPSRFSGSGSGTDFTLTISSLQPEDFATYYCQQANSFPPTFGGGTKVEIK
notes: as for B2
B5: BAP-143-07-03-12 (antibody, V domains shown)
VH: EVQLVESGGGLVQPGGSLRLSCAASGFTFSSYNMNWVRQAPGKGLEWVSYISSSSSTIYYADSVKGRFTISRDNAKNSLSLQMNSLRDEDTAVYYCARAYYYGMDKWGQGTTVTVSS
VL: DIQMTQSPSSVSASVGDRVTITCRASQGISGWEAWYQQKPGKAPKFLIYAASTLQSGVPSRFSGSGSGTDFTLTISSLQPEDFATYYCQQANSFPPTFGGGTKVEIK
notes: as for B2
B6: BAP-143-00-04 (antibody, V domains shown)
VH: EVQLVESGGGLVQPGGSLRLSCAASGFTFSSYNDNWVRQAPGKGLEWVSYISSSSSTIYYADSVKGRFTISRDNAKNSLSLQMNSLRDEDTAVYYCARAYYYGMDVWGQGTTVTVSS
VL: DIQMTQSPSSVSASVGDRVTITCRASQGISGWLAWYQQKPGKAPKFLIYAASTLQSGVPSRFSGSGSGTDFTLTISSLQPEDFATYYCQQANSFPPTFGGGTKVEIK
notes: as for B2
B7: BAP-143-00-05 (antibody, V domains shown)
VH: EVQLVESGGGLVQPGGSLRLSCAASGFTFSSYNMNWVRQAPGKGLEWVSYISSSSSTIYYADSVKGRFTISRDNAKNSLSLQMNSLRDEDTAVYYCAEAYYYGMDVWGQGTTVTVSS
VL: DIQMTQSPSSVSASVGDRVTITCRASQGISGWLAWYQQKPGKAPKFLIYAASTLQSGVPSRFSGSGSGTDFTLTISSLQPEDFATYYCQQANSFPPTFGGGTKVEIK
notes: as for B2
B8: BAP-143-00-02 (antibody, V domains shown)
VH: EVQLVESGGGLVQPGGSLRLSCAASGFTFSSYNMNWVRQAPGKGLEWVSYISSSSSTIYYADSVKGRFTISRDNAKNSLSLQMNSLRDEDTAVYYCARAYYYGMDVWGQGTTVTVSS
VL: DIQMTQSPSSVSASVGDRVTITCRASQGISGWLAWYQQKPGKAPKFLIYAASTLQSGVPSRFSGSGSGTDFTLTISSLQPEDFATYYCQQANSEPPTFGGGTKVEIK
notes: as for B2
B9: BAP-143-00-06 (antibody, V domains shown)
VH: EVQLVESGGGLVQPGGSLRLSCAASGFTFSSYNMNWVRQAPGKGLEWVSYISSSSSTIYYADSVKGRFTISRDNAKNSLSLQMNSLRDEDTAVYYCARAYYYGDDVWGQGTTVTVSS
VL: DIQMTQSPSSVSASVGDRVTITCRASQGISGWLAWYQQKPGKAPKFLIYAASTLQSGVPSRFSGSGSGTDFTLTISSLQPEDFATYYCQQANSFPPTFGGGTKVEIK
notes: as for B2
B10: BAP-143-00-03 (antibody, V domains shown)
VH: EVQLVESGGGLVQPGGSLRLSCAASGFTFSSYNMNWVRQAPGKGLEWVSYISSSSSTIYYADSVKGRFTISRDNAKNSLSLQMNSLRDEDTAVYYCARAYYYGMDVWGQGTTVTVSS
VL: DIQMTQSPSSVSASVGDRVTITCRASQGISGWLAWYQQKPGKAPKFLIYAASTLQSGVPSRFSGSGSGTDFTLTISSLQPEDFATYYCQQANSFPDTFGGGTKVEIK
notes: as for B2

Columns and labels:
[1] = molecular target: T1, recombinant human Nectin4 antigen (human, UniProt Q96NY8 32-349); experiment: ELISA, coated antigen, PSB pH 7.4
T1 construct: construct not described
T1 sequence (looked up): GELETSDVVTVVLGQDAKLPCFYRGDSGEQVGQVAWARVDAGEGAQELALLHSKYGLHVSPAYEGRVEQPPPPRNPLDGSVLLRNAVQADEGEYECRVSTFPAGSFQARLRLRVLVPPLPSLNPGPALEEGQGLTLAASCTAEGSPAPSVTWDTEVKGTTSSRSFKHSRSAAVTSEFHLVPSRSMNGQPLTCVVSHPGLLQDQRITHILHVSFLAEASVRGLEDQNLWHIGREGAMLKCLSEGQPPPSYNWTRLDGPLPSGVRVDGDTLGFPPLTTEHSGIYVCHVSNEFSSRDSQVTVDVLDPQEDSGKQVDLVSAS
Protocol: 1) Coat ELISA plates with 100 μL of 1 μg/mL recombinant human Nectin4 antigen or cynoNectin4 antigen in carbonate-bicarbonate coating buffer. […] 2) Cover plates with sealing film and incubate overnight at 4° C. [0444] 3) Decant plates and tap out residual liquid on a stack of paper towels. [0445] 4) Wash wells twice by dispensing 200 μL of pH 6.0 or pH 7.4 ELISA incubation buffer to the wells and completely aspirate the contents. [0446] 5) Add 200 μL of pH 6.0 or pH 7.4 ELISA incubation buffer to the wells. Cover with sealing film and place the plate onto a plate shaker set to 50 rpm for 60 minutes at room temperature. [0447] 6) Decant plates and tap out residual liquid on a stack of paper towels. […] 7) Serially dilute test articles in 3-fold dilutions starting at 3000 ng/mL in pH 6.0 or pH 7.4 ELISA incubation buffer. […] 8) Add 100 μL/well of diluted test articles to the plates [0450] 9) Cover with sealing film and place the plates onto a plate shaker set to 50 rpm for 60 minutes at room temperature. [0451] 10) Decant plates and tap out residual liquid on a stack of paper towels. [0452] 11) Wash wells three times by dispensing 200 μL of pH 6.0 or pH 7.4 ELISA wash buffer to the wells and completely aspirate the contents. […] 12) Dilute the HRP secondary antibody at 1:2500 in pH 6.0 or pH 7.4 ELISA incubation buffer. [0454] […]

[2] = molecular target: T2, huNectin4-His (human, UniProt Q96NY8 32-349); experiment: SPR, huNectin4-His immobilized, pH 7.4
T2 construct: Immobilized on the SPR chip; also called humanNectin4; human Nectin4; not shown: His tag
T2 sequence (looked up): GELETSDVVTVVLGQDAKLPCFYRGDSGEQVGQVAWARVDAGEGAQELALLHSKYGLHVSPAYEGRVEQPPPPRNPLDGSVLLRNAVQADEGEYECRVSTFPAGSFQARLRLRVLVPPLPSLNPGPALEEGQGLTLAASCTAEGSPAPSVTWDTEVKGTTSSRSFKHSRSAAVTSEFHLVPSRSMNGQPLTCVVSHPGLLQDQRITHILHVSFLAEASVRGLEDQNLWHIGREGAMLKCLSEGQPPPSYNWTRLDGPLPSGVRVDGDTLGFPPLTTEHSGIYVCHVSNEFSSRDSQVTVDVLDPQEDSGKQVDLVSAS
Protocol: (§1) Binding kinetics of anti-Nectin4 antibodies were measured by surface plasmon resonance using a SPR2/4 instrument (Sierra Sensors, Hamburg, Germany) and flat amine sensor chips. The SPR sensor contained four flow cells (FC1-FC4), each of which was addressed individually or in groups. huNectin4-His was immobilized in FC2, and cynoNectin4-mFc in FC4. No protein was immobilized in FC1 and FC3 which were used as control surfaces for FC2 and FC4, respectively.
(§2) All injections were done at a flow rate of 25 μL/min at 25° C. The sensor surface was activated with 1-ethyl-3-(3-dimethylaminopropyl)-carbodiimide (EDC) and N-hydroxysuccinimide (NHS) (200 mM/50 mM) for 480 seconds. HuNectin4-His (2 μg/mL in 10 mM NaAc, pH4.5) was injected for 480s and the surface was inactivated by injecting 1M ethanolamine-HCl for 480s. CynoNectin4 was immobilized using the same conditions as described for huNectin4-His, except that the cynoNectin4 was diluted into 10 mM NaAc buffer having pH 5.0. The control surface was activated and deactivated using the same conditions, but without injecting protein. PBST buffer (PBS pH 7.4 with 0.05% TWEEN20™) was used as running buffer for the surface preparation. The running solution was switched to PBST with 30 mM sodium bicarbonate with the pH adjusted as indicated in the figures before the analyte injections. The instrument was equilibrated with the running solution for one hour before the first analyte injection.
(§3) The off-rate was measured for 360s. The chip surface was regenerated after each cycle of interaction analysis by injecting 6 μL of 10 mM glycine (pH 2.0). Flow cells 1 and 3 without immobilized protein were used as control surfaces for reference subtraction.

[3] = molecular target: T2, huNectin4-His; experiment: SPR, huNectin4-His immobilized, pH 6.5
Protocol: as §1, §2, §3

[4] = molecular target: T1, recombinant human Nectin4 antigen; experiment: ELISA, ratio of EC50s
Protocol: 1) Coat ELISA plates with 100 μL of 1 μg/mL recombinant human Nectin4 antigen or cynoNectin4 antigen in carbonate-bicarbonate coating buffer. […] 2) Cover plates with sealing film and incubate overnight at 4° C. [0444] 3) Decant plates and tap out residual liquid on a stack of paper towels. [0445] 4) Wash wells twice by dispensing 200 μL of pH 6.0 or pH 7.4 ELISA incubation buffer to the wells and completely aspirate the contents. [0446] 5) Add 200 μL of pH 6.0 or pH 7.4 ELISA incubation buffer to the wells. Cover with sealing film and place the plate onto a plate shaker set to 50 rpm for 60 minutes at room temperature. [0447] 6) Decant plates and tap out residual liquid on a stack of paper towels. […] 7) Serially dilute test articles in 3-fold dilutions starting at 3000 ng/mL in pH 6.0 or pH 7.4 ELISA incubation buffer. […] 8) Add 100 μL/well of diluted test articles to the plates [0450] 9) Cover with sealing film and place the plates onto a plate shaker set to 50 rpm for 60 minutes at room temperature. [0451] 10) Decant plates and tap out residual liquid on a stack of paper towels. [0452] 11) Wash wells three times by dispensing 200 μL of pH 6.0 or pH 7.4 ELISA wash buffer to the wells and completely aspirate the contents. […] 12) Dilute the HRP secondary antibody at 1:2500 in pH 6.0 or pH 7.4 ELISA incubation buffer. [0454] […] 14) Cover with sealing film and place the plates onto a plate shaker set to 50 rpm for 60 minutes at room temperature. […] 15) Decant plates and tap out residual liquid on a stack of paper towels. […] 16) Wash wells three times by dispensing 200 μL of pH 6.0 or pH 7.4 ELISA wash buffer to the wells and completely aspirate the contents. [0458] 17) Dispense 50 μL per well of the TMB substrate solution into all wells of the plates.

[5] = molecular target: T2, huNectin4-His; experiment: SPR, huNectin4-His immobilized, pH 7.4; pH 7.4
Protocol: as §1, §2, §3

[6] = molecular target: T2, huNectin4-His; experiment: SPR, huNectin4-His immobilized, pH 6.5; pH 6.5
Protocol: as §1, §2, §3

Binder	Kd [2] [nM]	Kd [3] [nM]	koff [2] [s⁻¹]	kon [2] [M⁻¹ s⁻¹]	koff [3] [s⁻¹]	kon [3] [M⁻¹ s⁻¹]	EC50 ratio pH 7.4/pH 6.0 [4]	also measured
B1	0.127	0.102	–	–	–	–	–	EC50 [1]: 0.0216 µg/mL
B2	0.0067	0.00487	5.21e-06	778000	9.92e-06	2.04e+06	–	EC50 [1]: 0.133 µg/mL; EC50 ratio pH 7.4/6.0 [4]: 3.63
B3	1.81	0.785	0.000517	285000	0.000474	605000	–	–
B4	0.17	0.0282	2.01e-05	119000	5.94e-05	2.11e+06	–	–
B5	0.925	0.641	0.000401	434000	0.000483	754000	–	–
B6	–	–	–	–	–	–	2.37	–
B7	–	–	–	–	–	–	3.2	–
B8	–	–	–	–	–	–	–	Kd [5]: 9.76 nM; koff [5]: 0.00478 s⁻¹; kon [5]: 490000 M⁻¹ s⁻¹; Kd [6]: 9.31 nM; koff [6]: 0.00574 s⁻¹; kon [6]: 617000 M⁻¹ s⁻¹
B9	–	–	–	–	–	–	2.83	–
B10	–	–	–	–	–	–	7.13	–
